T1: CTCF (Homo sapiens, UniProt P49711 1-727)
T1 sequence: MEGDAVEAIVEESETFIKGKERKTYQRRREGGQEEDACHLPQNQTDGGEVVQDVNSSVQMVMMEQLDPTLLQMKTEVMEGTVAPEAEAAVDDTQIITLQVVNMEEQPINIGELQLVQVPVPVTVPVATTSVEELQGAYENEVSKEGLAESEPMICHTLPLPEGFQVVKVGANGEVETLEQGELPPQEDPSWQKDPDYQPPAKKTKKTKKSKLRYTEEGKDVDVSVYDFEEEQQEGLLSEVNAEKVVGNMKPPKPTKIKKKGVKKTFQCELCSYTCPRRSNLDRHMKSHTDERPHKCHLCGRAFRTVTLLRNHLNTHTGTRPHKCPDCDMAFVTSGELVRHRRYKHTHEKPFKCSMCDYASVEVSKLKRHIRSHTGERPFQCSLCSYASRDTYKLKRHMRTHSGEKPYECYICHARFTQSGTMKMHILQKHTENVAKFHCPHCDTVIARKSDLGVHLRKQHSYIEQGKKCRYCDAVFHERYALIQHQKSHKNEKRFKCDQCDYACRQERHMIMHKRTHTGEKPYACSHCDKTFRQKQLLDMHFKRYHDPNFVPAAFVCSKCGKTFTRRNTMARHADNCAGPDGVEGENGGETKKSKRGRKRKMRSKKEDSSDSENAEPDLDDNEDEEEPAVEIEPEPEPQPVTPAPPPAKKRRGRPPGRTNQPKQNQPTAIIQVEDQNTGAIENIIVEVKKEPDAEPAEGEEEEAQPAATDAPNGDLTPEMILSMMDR


Experiments:
CTCF [1] = molecular target: T1, CTCF; experiment: EMSA supershift; anti-CTCF antibody; supershift evident; Buffer, salt, pH and temperature not given; 40 pmol biotin probe, 200-fold cold competitor, 5% non-denaturing PAGE, LightShift Chemiluminescent EMSA kit; conditions: protein: recombinant; label: 5'-biotin on strand 1; blunt
CTCF [2] = molecular target: T1, CTCF; experiment: EMSA supershift; anti-CTCF antibody; Buffer, salt, pH and temperature not given; 40 pmol biotin probe, 200-fold cold competitor, 5% non-denaturing PAGE, LightShift Chemiluminescent EMSA kit; conditions: protein: recombinant; label: 5'-biotin on strand 1; blunt

Binder | binding result (CTCF [1]) | binding result (CTCF [2])
Blue-M5 (A allele) (dsDNA) DNA 1: ACTTCTGCCACTAGAGGCAGGAGGG DNA 2: CCCTCCTGCCTCTAGTGGCAGAAGT | binds | 
White-M5 (G allele) (dsDNA) DNA 1: ACTTCTGCCACTGGAGGCAGGAGGG DNA 2: CCCTCCTGCCTCCAGTGGCAGAAGT |  | no binding

— publication PMC7688135, “Two cis-regulatory SNPs upstream of ABCG2 synergistically cause the blue eggshell phenotype in the duck”
